Test results: patent CN117866905A (BEILAI PHARMACEUTICAL CO LTD, dated 2024)

T1: IL-17A重组蛋白(抗原), C端6×His标签 (human, UniProt Q16552 24-155, limits assumed, biotin in the ELISA of paragraph 227 (Biotin-IL-17A-His); site not stated)
T1 construct: Expressed in E. coli BL21 from pET28a and purified on a nickel column; also called IL-17A-His; Biotin-IL-17A-His
T1 sequence: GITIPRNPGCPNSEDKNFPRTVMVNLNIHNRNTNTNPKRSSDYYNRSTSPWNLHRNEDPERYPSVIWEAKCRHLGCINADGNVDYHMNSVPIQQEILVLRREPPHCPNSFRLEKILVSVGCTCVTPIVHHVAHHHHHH


How the values were obtained:
[1] = biological target: T1, IL-17A重组蛋白(抗原), C端6×His标签; assay: ELISA; antibody coated at 2 ug/mL, Biotin-IL-17A-His titrated from 10 ug/mL in 5-fold steps, HRP-streptavidin
[2] = biological target: T1, IL-17A重组蛋白(抗原), C端6×His标签; assay: cell-based or functional assay
[3] = biological target: 生物素化的IL-17A (ACRO Biosystems kit EP-139) (UniProt Q16552); assay: competition ELISA kit (ACRO EP-139); IL-17RA coated, biotinylated IL-17A, supernatant diluted 5-fold; inhibition of IL-17A/IL-17RA binding

EC50 [1] [µg/mL] | 阻断Human IL-17A蛋白激活293F-IL-17RA-IL-17Rc-ACT1-NFκB-Luc, IC50 [2] [nM] | 结合抑制率 [3] [%] | Binder
10.1 | 2.23 |  | 阳性对照抗体依奇珠单抗 (Ixekizumab) (antibody, human IgG4 S228P, kappa, V domains shown, also called 阳性抗体) VH: QVQLVQSGAEVKKPGSSVKVSCKASGYSFTDYHIHWVRQAPGQGLEWMGVINPMYGTTDYNQRFKGRVTITADESTSTAYMELSSLRSEDTAVYYCARYDYFTGTGVYWGQGTLVTVSS VL: DIVMTQTPLSLSVTPGQPASISCRSSRSLVHSRGNTYLHWYLQKPGQSPQLLIYKVSNRFIGVPDRFSGSGSGTDFTLKISRVEAEDVGVYYCSQSTHLPFTFGQGTKLEIKR
 |  | 60 | G4-H10:Fc融合蛋白 (IL-17Nb secreted by G4-H10-MSC; VHH-(GGGGS)3-VHH-IgG4 Fc) (Fc fusion) QVQLVESGGGLVQPGGSLRLSCAASGEKLDYFAIGWFRQAPGKEREVVSCVTSSGSSTNYLSSVKDRFTISIDNAKNTVYLQMNSLKPEDTAIYYCASTILLCSDYISAFGTWGQGTQVTVASGGGGSGGGGSGGGGSEVQLVESGGGLVQPGGSLRLSCAASGFSIHIYAMGWYRQAPGKQRELVATITRGGVTNNADSVKGRFTISRDNAKNTAYLQMNSLKPEDTAVYYCNAGGTNGGYWGQGTQVTVSSAPEFLGGPSVFLFPPKPKDTLMISRTPEVTCVVVDVSQEDPEVQFNWYVDGVEVHNAKTKPREEQFNSTYRVVSVLTVLHQDWLNGKEYKCKVSNKGLPSSIEKTISKAKGQPREPQVYTLPPSQEEMTKNQVSLTCLVKGFYPSDIAVEWESNGQPENNYKTTPPVLDSDGSFFLYSRLTVDKSRWQEGNVFSCSVMHEALHNHYTQKSLSLSLGK
